Measurements from paper PMC11696677 (Communications Biology, 2025).
Like-named read-outs stand apart in the source and are kept apart here.

T1: WT Kapβ2 (human, UniProt Q92973-2 1-890)
T1 sequence (looked up): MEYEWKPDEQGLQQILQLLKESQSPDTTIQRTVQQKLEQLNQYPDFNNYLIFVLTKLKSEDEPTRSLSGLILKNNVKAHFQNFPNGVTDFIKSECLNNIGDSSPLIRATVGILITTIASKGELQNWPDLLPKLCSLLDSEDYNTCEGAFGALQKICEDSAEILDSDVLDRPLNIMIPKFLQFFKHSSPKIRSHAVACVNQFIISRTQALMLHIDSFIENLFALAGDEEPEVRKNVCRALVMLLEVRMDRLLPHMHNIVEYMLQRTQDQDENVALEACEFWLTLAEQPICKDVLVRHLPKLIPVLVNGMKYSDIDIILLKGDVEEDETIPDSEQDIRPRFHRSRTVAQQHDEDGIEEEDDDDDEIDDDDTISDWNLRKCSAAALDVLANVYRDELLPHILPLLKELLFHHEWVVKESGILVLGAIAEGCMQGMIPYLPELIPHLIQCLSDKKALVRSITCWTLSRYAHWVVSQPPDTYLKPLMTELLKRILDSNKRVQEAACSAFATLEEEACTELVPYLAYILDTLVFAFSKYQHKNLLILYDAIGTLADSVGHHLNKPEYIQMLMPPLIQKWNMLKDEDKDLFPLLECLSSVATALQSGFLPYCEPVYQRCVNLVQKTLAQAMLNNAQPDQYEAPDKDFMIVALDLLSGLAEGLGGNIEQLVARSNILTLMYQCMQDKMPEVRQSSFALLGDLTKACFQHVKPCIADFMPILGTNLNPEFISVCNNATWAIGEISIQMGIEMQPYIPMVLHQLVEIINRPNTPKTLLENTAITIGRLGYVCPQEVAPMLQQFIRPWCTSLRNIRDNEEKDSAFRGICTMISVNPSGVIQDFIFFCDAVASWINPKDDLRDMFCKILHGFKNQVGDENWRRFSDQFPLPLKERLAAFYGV

T2: TAMRA-(PR)20 (TAMRA label (position not given))
T2 peptide: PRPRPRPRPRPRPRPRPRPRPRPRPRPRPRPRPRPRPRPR

T3: TAMRA-(GR)20 (TAMRA label (position not given))
T3 peptide: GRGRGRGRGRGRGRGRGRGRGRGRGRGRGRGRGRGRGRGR

B1: Kapβ2_(W460A:W730A) (receptor, human, UniProt Q92973-2 1-890, looked up)
chain: MEYEWKPDEQGLQQILQLLKESQSPDTTIQRTVQQKLEQLNQYPDFNNYLIFVLTKLKSEDEPTRSLSGLILKNNVKAHFQNFPNGVTDFIKSECLNNIGDSSPLIRATVGILITTIASKGELQNWPDLLPKLCSLLDSEDYNTCEGAFGALQKICEDSAEILDSDVLDRPLNIMIPKFLQFFKHSSPKIRSHAVACVNQFIISRTQALMLHIDSFIENLFALAGDEEPEVRKNVCRALVMLLEVRMDRLLPHMHNIVEYMLQRTQDQDENVALEACEFWLTLAEQPICKDVLVRHLPKLIPVLVNGMKYSDIDIILLKGDVEEDETIPDSEQDIRPRFHRSRTVAQQHDEDGIEEEDDDDDEIDDDDTISDWNLRKCSAAALDVLANVYRDELLPHILPLLKELLFHHEWVVKESGILVLGAIAEGCMQGMIPYLPELIPHLIQCLSDKKALVRSITCATLSRYAHWVVSQPPDTYLKPLMTELLKRILDSNKRVQEAACSAFATLEEEACTELVPYLAYILDTLVFAFSKYQHKNLLILYDAIGTLADSVGHHLNKPEYIQMLMPPLIQKWNMLKDEDKDLFPLLECLSSVATALQSGFLPYCEPVYQRCVNLVQKTLAQAMLNNAQPDQYEAPDKDFMIVALDLLSGLAEGLGGNIEQLVARSNILTLMYQCMQDKMPEVRQSSFALLGDLTKACFQHVKPCIADFMPILGTNLNPEFISVCNNATAAIGEISIQMGIEMQPYIPMVLHQLVEIINRPNTPKTLLENTAITIGRLGYVCPQEVAPMLQQFIRPWCTSLRNIRDNEEKDSAFRGICTMISVNPSGVIQDFIFFCDAVASWINPKDDLRDMFCKILHGFKNQVGDENWRRFSDQFPLPLKERLAAFYGV

Columns and labels:
Assay in all cases: fluorescence polarisation
WT Kapβ2 = molecular target: T1, WT Kapβ2
Kapβ2_(W460A:W730A) = molecular target: B1
TAMRA-(PR)20 [1] = molecular target: T2, TAMRA-(PR)20
TAMRA-(GR)20 [2] = molecular target: T3, TAMRA-(GR)20
TAMRA-(PR)20 [3] = molecular target: T2, TAMRA-(PR)20
TAMRA-(GR)20 [4] = molecular target: T3, TAMRA-(GR)20

Kd (WT Kapβ2) [nM] | Kd (Kapβ2_(W460A:W730A)) [nM] | affinity relative to that of FUS for Kapβ2_(W460A:W730A) (TAMRA-(PR)20 [1]) [times] | affinity relative to that of FUS for Kapβ2_(W460A:W730A) (TAMRA-(GR)20 [2]) [times] | affinity relative to that of FUS for Kapβ2_(W460A:W730A) (TAMRA-(PR)20 [3]) [times] | affinity relative to that of FUS for Kapβ2_(W460A:W730A) (TAMRA-(GR)20 [4]) [times] | Binder
39.6 ± 17.7 | 124 ± 58.5 |  |  |  |  | FUS-GFP (natural protein, UniProt P35637 1-526, looked up) MASNDYTQQATQSYGAYPTQPGQGYSQQSSQPYGQQSYSGYSQSTDTSGYGQSSYSSYGQSQNTGYGTQSTPQGYGSTGGYGSSQSSQSSYGQQSSYPGYGQQPAPSSTSGSYGSSSQSSSYGQPQSGSYSQQPSYGGQQQSYGQQQSYNPPQGYGQQNQYNSSSGGGGGGGGGGNYGQDQSSMSSGGGSGGGYGNQDQSGGGGSGGYGQQDRGGRGRGGSGGGGGGGGGGYNRSSGGYEPRGRGGGRGGRGGMGGSDRGGFNKFGGPRDQGSRHDSEQDNSDNNTIFVQGLGENVTIESVADYFKQIGIIKTNKKTGQPMINLYTDRETGKLKGEATVSFDDPPSAKAAIDWFDGKEFSGNPIKVSFATRRADFNRGGGNGRGGRGRGGPMGRGGYGGGGSGGGGRGGFPSGGGGGGGQQRAGDWKCPNPTCENMNFSWRNECNQCKAPKPDGPGGGPGGSHMGGNYGDDRRGGRGGYDRGGYRGRGGDRGGFRGGRGGGDRGGFGPGKMDSRGEHRQDRRERPY
 |  | ~1.5 | ~1.5 | ~3 | ~3 | B1
